According to paper PMC3557803:

How the values were obtained:
Assay in all cases: UV-visible absorbance assay of deamination
Format in all cases: biochemical, Martinezella rhizogenes
Details in all cases: 20 mM HEPES pH 7.7
[1] = substrate: Nc1nc2c(c(=O)[nH]1)N=C([C@H](O)[C@H](O)CO)CN2
[2] = substrate: Nc1nc2nccnc2c(=O)[nH]1
[3] = substrate: Nc1nc2c(c(=O)[nH]1)N=C(CO)CN2
[4] = substrate: Nc1nc2ncc(C=O)nc2c(=O)[nH]1
[5] = substrate: Nc1nc2ncc(CNc3ccc(C(=O)N[C@@H](CCC(=O)O)C(=O)O)cc3)nc2c(=O)[nH]1
[6] = substrate: Nc1nc2[nH]c(=O)cnc2c(=O)[nH]1
[7] = substrate: C[C@H](O)C(=O)C1=Nc2c(nc(N)[nH]c2=O)NC1
[8] = substrate: C[C@H](O)[C@H](O)c1cnc2[nH]c(N)nc(=O)c2n1
[9] = substrate: Nc1nc2nc(C(=O)O)cnc2c(=O)[nH]1
[10] = substrate: Nc1nc2ncc(CO)nc2c(=O)[nH]1
[11] = substrate: Nc1nc2ncc([C@H](O)[C@H](O)CO)nc2c(=O)[nH]1
[12] = substrate: Nc1nc2ncc(C(=O)O)nc2c(=O)[nH]1
[13] = substrate: C[C@H](O)[C@H](O)C1=Nc2c(nc(N)[nH]c2=O)NC1

B1: Arad3529 (Rhizobium rhizogenes K84) (protein)
chain: MSYSFMSPPNAARFVLSNATVPAVTVVGFTGPSSEGLMKADIVVADGLIKDILPAGTAPAELAKADMRDGMVWPTFADMHTHLDKGHIWERRANPDGSFMGALDAVRSDREANWSAADVRKRMEFSLRAAYAHGTSLIRTHLDSLAPQHRISFEVFSEVREAWKDKIALQAVALFPLDFMVDDAFFADLTTVVREAGGLLGGVTQMNPDIDAQLDKLIRAAAANGLDIDLHVDETEDREVLTLKAIAAAVLRNGFTGKVTAGHCCSLARQDENVAAATIDLVAKAGISIVALPMCNMYLQDRHPGRTPRWRGVTLLHELAAAGVPTAVASDNTRDPFYAYGDLDPVEVFREAVRILHLDHPLDTAARVVTTSPASILGRPDIGRIAVGGPADLVLFSARRWSEFLSRPQSDRVVLRKGKVIDRSLPDYRELDTVIGA
Km [1]: 200 ± 100 µM
kcat [1]: 0.036 ± 0.008 s⁻¹
kcat/Km [1]: 260 M⁻¹ s⁻¹
Km [2]: 39 ± 4 µM
kcat [2]: 131 ± 4 s⁻¹
kcat/Km [2]: 3.3e+06 M⁻¹ s⁻¹
Km [3]: 37 ± 7 µM
kcat [3]: 1.2 ± 0.1 s⁻¹
kcat/Km [3]: 33000 M⁻¹ s⁻¹
Km [4]: 12 ± 2 µM
kcat [4]: 64 ± 12 s⁻¹
kcat/Km [4]: 5.2e+06 M⁻¹ s⁻¹
Km [5]: 50 ± 10 µM
kcat [5]: 6.4 ± 0.5 s⁻¹
kcat/Km [5]: 130000 M⁻¹ s⁻¹
Km [6]: 5.7 ± 0.5 µM
kcat [6]: 1.6 ± 0.1 s⁻¹
kcat/Km [6]: 280000 M⁻¹ s⁻¹
Km [7]: 22 ± 9 µM
kcat [7]: 2.9 ± 0.3 s⁻¹
kcat/Km [7]: 130000 M⁻¹ s⁻¹
Km [8]: 47 ± 9 µM
kcat [8]: 46 ± 4 s⁻¹
kcat/Km [8]: 1e+06 M⁻¹ s⁻¹
Km [9]: 13 ± 1 µM
kcat [9]: 48 ± 2 s⁻¹
kcat/Km [9]: 3.7e+06 M⁻¹ s⁻¹
Km [10]: 23 ± 3 µM
kcat [10]: 28 ± 1 s⁻¹
kcat/Km [10]: 1.2e+06 M⁻¹ s⁻¹
Km [11]: 61 ± 7 µM
kcat [11]: 19 ± 1 s⁻¹
kcat/Km [11]: 310000 M⁻¹ s⁻¹
Km [12]: 27 ± 2 µM
kcat [12]: 110 ± 3 s⁻¹
kcat/Km [12]: 4e+06 M⁻¹ s⁻¹
Km [13]: 93 ± 13 µM
kcat [13]: 0.09 ± 0.007 s⁻¹
kcat/Km [13]: 930 M⁻¹ s⁻¹
